Test results taken from the DeepSol protein solubility set.

Assay: soluble on expression in E. coli; label from the status in PepcDB or PDB records

Sequence	soluble on expression in E. coli
MSYTATNQPVRAPPLNSDYELIDGDPYFTRVVSYFRFSDYVNWAVITASFPLGMKLWEKIVPSQGKGLKPSVVNPVTLRVSTLLGFFGGFCLNYVKSSQRFLGWRENSREVKLDRFEIKQKLSQGVLPYNEHLSKLDDRNKDISNRNSQYSHALLFVIPWFNTTYHPYHQVDLKKYYINREGEENWGFELKPLDEIYAKYGKKF	not soluble
MSYTHILVAVAVTPESHQLLAKAVSIARPVQAKVSLITLASDPELYNQFAAPMMEDLRAVMHEETENFLKMLGEKADYPIEQTFIASGELSQHILAVCRKHHVDLVICGNHNHSFFSRASCSAKSVVSASQVDVLLVPLAGD	not soluble
MSYVIDRRLNGKNKSTVNRQRFLRRYREHIKKAVEEAVSRRSITDMEHGEQISIPGRDIDEPVLHHGRGGRQTVVHPGNKEFTAGEHIARPSGGGGGRGGGKASNSGEGMDDFVFQITQEEFLDFMFEDLELPNLVKRHITGTDTFKTVRAGISNDGNPSRINIVRTLRSAHARRIALSGGSRAKLRAALKELERIKREEPDNLGDIQELELEIAKLRARIDRVPFLDTFDLKYNLLVKQPNPTSKAVMFCLMDVSGSMTQATKDIAKRFFILLYLFLKRNYEKIEVVFIRHHTSAREVDEEEFFYSRETGGTIVSSALKMMQEIMAERYPTHEWNIYAAQASDGDNWNDDSPVCRDILLKQIMPFVQYYTYVEITPREHQALWFEYERVREAFEDSFAQQQIVSASDIYPVFRELFQRRLVAKLAAALEHHHHHH	not soluble
MTAFSTLNVLPPAQLTNLNELGYLTMTPVQAAALPAILAGKDVRVQAKTGSGKTAAFGLGLLQQIDASLFQTQALVLCPTRELADQVAGELRRLARFLSNTKILTLCGGQPFGMQRDSLQHAPHIIVATPGRLLDHLQKGTVSLDALNTLVMDEADRMLDMGFSDAIDDVIRFAPASRQTLLFSATWPEAIAAISGRVQRDPLAIEIDSTDALPPIEQQFYETSSKGKIPLLQRLLSLHQPSSCVVFCNTKKDCQSVCDALNEVGQSALSLHGDLEQRDRDQTLVRFANGSARVLVATDVAARGLDIKSLELVVNFELAWDPEVHVHRIGRTARAGNSGLAISFCAPEEAQRANIISDMLQIKLNWQTLPANSSIVPLEAEMATLCIDGGKKAKMRPGDVLGALTGDIGLDGADIGKIAVHPAHVYVAVRQAVAHKPWKQLQGGKIKGKTCRVRLLK	soluble
MTAMLSMACRRAVRAGAHCDEGGHVKAFDYPDSMNNKPVPIVLRRTSIGLILFILPAMLIGCSRVPVKTQPKPASVNVWPLTTPANPEAANEVVMRALSLVGTPYRFGGNTPESGFDCSGLVSYVYRDALDLRLPRTSYELAAVQGPKIDAEQLTTGDLVFFGSARSVTHVGIYLSEGRFVHAPSSGGTVRLDRLDTPYWRDHYTGAKRVLRIIEAKVSMVFTDKCHLTFTHYGEESAQAALHTYFNIGDINQVEVQGLPETCFNSLNQQQENVPSPRHISENVDCIYSAENMQNQILDKSFNRTIALHHHNASQFVLWNPWHKKTSGMSETGYQKMLCLETARIHHLLEFGESLSVEISLKG	soluble
MTANREAIDMARVAAGAAAAKLADDVVVIDVSGQLVITDCFVIASGSNERQVNAIVDEVEEKMRQAGYRPARREGAREGRWTLLDYRDIVVHIQHQDDRNFYALDRLWGDCPVVPVDLSANSAGAQ	not soluble
MTAPVPTCNMSGNPINLHKLTLIMPLPSPEARQFSLKLQTLIAEKIGKHGNWIPFSRFMELVLYAPQYGYYTGGSHKIGNTGDFITAPTLTSLFAQTLARQLQELLSQTAGNIYEFGAGTGQLAADLLGSISDGISRYYIIEISPELAARQKNLIQARAPEASQKVVHLTALPEAFDGIIIGNEVLDAMPVEIVRKNEGGSFEHVGVCLDNDRFTYSARPLHDLQLSALASLYFPQTDYPYTSELHPQQYAFIRTLASRLEHGCMIFIDYGFDAAQYYHPQRNQGTLIGHYRHHIIHNPFDFIGLADLTAHVNFTDIAQAGTDAGLDLIGYLPQSHFLLNLGITELLAQTGKTDSAAYICEAAAVQKLIDQHEMGELFKVIAFGKNIGIDWAGFRFGDICHKL	not soluble
MTARARSALLDAEHIVGYTTYVELLPDEITEGADDIYNTPMCGEVSRTEEAIDRALAGNDVAIIGSGDPNVYALAGLALEIIESKGATATMLDFDVVPGVP	not soluble
MTASIFSGVIPALMTPCRQDRTPDFDALVRKGKELIADGMSAVVYCGSMGDWPLLTDEQRMEGVERLVKAGIPVIVGTGAVNTASAVAHAVHAQKVGAKGLMVIPRVLSRGSVIAAQKAHFKAILSAAPEIPAVIYNSPYYGFATRADLFFALRAEHKNLVGFKEFGGPADMRYAAENITSRDDEVTLMIGVDTAVVHGFVNCGATGAITGIGNVLPKEVIHLCKLSQAAAKGDADARARALELEQALAVLSSFDEGPDLVLYFKYMMVLKGDKEYTLHFNETDALTDSQRGYVEAQFKLFNSWYADWSKLPGAVQTCKAA	soluble
MTAYAKWSSCFQNGIDSWNNLTTTAEFLNHAGNISSNCKIILDLNIVKLSDSKFYISPQVQKSLTHATVGISSNFEAESQLKKVLELSSHHFLICQLFQRLPIINIFGATPKLSERERELFQKIGNYYPVAIGTKSGLVNVTMKPQYNYSLNDSAVPSSKSEFQLDLIYFLKDVLKQDFYYSIWFNIFFDELPNMLHRNRNFDENRITLCQININIDNDQKTNMKQFFKSLISDKRYVIIFEVVNDYGVLFLINFDNTTCRKKLGIVRNV	not soluble
MTDEQRSGSRRRGGALGGGRGGNSQNSGRKRSSNSPADSASSSQKTSRNPSQNRPPMNIVPQKVTILKRNQDSQPTSPINRNAPPGPLVAAVQPLMAVELGDSGASLKGWNSNPTTPEKTTINVAGRQAEANKKQTQEYYFSKNAGSAVSAQTFQETVQYPMSSFPLEKNVPIQIDNNFTLLITPTTSKCNGLFIKVKLQHGDDNITTGALLKLDADEKTIRKSCRETIENLLKAKSSSDRFPFSKCSEGFLTSCLIKKLVDRLEAFPEAIYYCEKCDYHINTIGHAKAHLESSTHFDDVKRQEQREHLLKIIPPPTEAHLESVEKVLEGTLKSYQQVRQNGIEIGETIIYYLSTTVFPSIGLQDVILRPFGSVTYDVTLPDSDYNVAYTMSIPEGTPIFALLEQVRKKIADDGHPADHSMEMGTPSTIIFTFKGVRVKLCWMSCFNHRIQLHFSELMKTYVNLREEVAQFLQLIRLWATKAGLDSKNKPRIGLPRYGFDIMAIHFLQQIGCLPVLHELFEAGPETEKIEEMSAEKTAKLQSEEAGQRRMRLMSRYEKNTEKIGTKFDLKKSWNLAELFIGFFRYYVERHRDVVIQITQLIPMSRDVSRWNKKILHVVDPFRGDNVLSIPKVSTWQPFFFNCLLTSFVSFSIPRTKNGPLIEVSFVHNKTIKPGKKFKDTPKKATVEAPIPLTQIMEEHYQEPVYEIVNDKDHLKYMKELKERLMIDGILVNERKPIDYHTDDHRECVYGRNSLLRFKRVLKPGLNGKMAASMDGLSFVTKKGKKFINRWKKANVIILSEDSSEIDEKTKAADSNVSEIAEKLEETLKISSQKNIDVAVTSMPVSTEIKPEPITKLSNEAPVKIKNVAQPQCDLIEAPQESLMNESMMESSFDETESPMKTPIVQKPVKQNATFGKSTISTVIPDKQFCSEEFFIKLNSNLKDIVSKSKSLKPSDFHYEFSTDLFCGDFEMEMKCTHCDGSHCVENCPMMEIPPIKKYQARTPEDLKDIDDMIDKYYHENILDERRLKMLDHKIDELQSFLRKNYREDVTLTTFGSVMTGLSVNCSDIDICLRFGDGDVPPKDLTAKEVIQKTESVLRKCHLVKRVQAIVTAKVPIVKFQVKLSNGAIIDVDISYYNILAIYNTALLKEYSLWTPDKRFAKLALFVKTWAKNCEIGDASRGSLSSYCHVIMLISYLQNCDPPVLPRLQEDFRSDNRERRLVDNWDTSFAQVETSLLQRWPKNKESCAQLLIGYFDYYSRFDFRNFVVQCRREMILSKMEKEWPRPLCVEDPFDLSHNLSSGVNKKMFVFIMKVFINSRAVFMSEKPPMNRDHTFLSSYQHQLLRKCNQGSAPTDRQCHQCHRIGHFVESCPQRALAKEARKRFGSNSTNSSYRSNDSGRGFKNGEEGGDRLTYHKRTYYHRSYNK	not soluble
MTDLNKHIKQAQTQRKQLLEESRELHREKLLVQAENRFFLEYLTNKTEEYTEQPEKVWNSYLQKSGEIERRRQESASRYAEQISVLKTALLQKENIQSSLKRKLQAMRDIAILKEKQEKEIQTLQEETKKVQAETASKTREVQAQLLQEKRLLEKQLSEPDRRLLGKRKRRELNMKAQALKLAAKRFIFEYSCGINRENQQFKKELLQLIEQAQKLTATQSHLENRKQQLQQEQWYLESLIQARQRLQGSHNQCLNRQDVPKTTPSLPQGTKSRINPK	not soluble
MTDRYSFSLTTFSPSGKLGQIDYALTAVKQGVTSLGIKATNGVVIATEKKSSSPLAMSETLSKVSLLTPDIGAVYSGMGPDYRVLVDKSRKVAHTSYKRIYGEYPPTKLLVSEVAKIMQEATQSGGVRPFGVSLLIAGHDEFNGFSLYQVDPSGSYFPWKATAIGKGSVAAKTFLEKRWNDELELEDAIHIALLTLKESVEGEFNGDTIELAIIGDENPDLLGYTGIPTDKGPRFRKLTSQEINDRLEAL	soluble
MTEEFEIAGISTGAWWSSPTNTAAVFSGYSLPCSTEISPDVTNFGWQNFDNKINDHNDGCMNMHNSFFEGLLIDPNDQLLPDPWSKSTIPNAKSELLENFPFLDNMFLVDSEAESLLDHEIRNHKSSKEQITQDYKNLTSKAQLEENSDEYSPRLLKRPRLETLSPLPSFKVRKEKLGDRITALQQLVSPFGKTDTASVLNEAVEYIKFLQEQVTVLSNPEQNTIGSVQQQQCSNKKSINTQGEVEEDECSPRRYVDLSSRGLCLMPISASYPVAAAAASAAEMNVHLVSGIFHSL	soluble
MTEEKPKIGRPPVLSCAERTCQILRAAEQVFVCHGYSGTTMDRIACAAGMSKRTLYQHFPDKLAVLQGILRAYDAGPLMESLTDPDPPGSAREILHRSLVEILRFLLCPAQVALTRLAVSEATAAPEVARLFYDNAMGGLSAAFTRRIAGLAAQGRIRCSDADWLGSSLVGCALNRQLLRRLTHPEAGPPDVAELERRVSALLDLVGPSLGFAD	not soluble
MTEFFSQKQIDEIRECFNFYSTSGVLRTDSQLRCALRSLGYSPTASKTDIYFKKLNKKPIEFATFLDICKDEQNSPNPLTEIIKALSGLDRNKTRAMPSRELAAILSHVGEQMSPEEIKYLLSKVEVNGMVPHQALIEYISK	not soluble
MTEHLLAMNQKLKNPDEALSLFGNQDSFLKLMEKDLNLNIITRGETIYVSGDDESFQIADRLLGSLLALIRKGIEISERDVIYAIKMAKKNELEYFESMYEEEITKNAKGKSIRVKTMGQREYVAAMKRNDLVFGIGPAGTGKTYLAVVKAVHALKNGHIKKIILTRPAVEAGESLGFLPGDLKEKVDPYLRPLYDALHDVLGADHTERLMERGIIEIAPLAYMRGRTLDDAYVILDEAQNTTPAQMKMFLTRLGFSSKMIITGDVSQIDLPKGVKSGLAVAKEMLKGIDGISMIELDQTDVVRHPLVAKIIEAYDKQN	not soluble
MTEKKKRGLLSWLGFGDEEKSQTTATDTQTQDEPQSQADVEAVAIQTETALTETETETETETETETETETATVEPARIVEQEKPTESFFARLKRSLSRTKANIGAGFFGLFKGKKIDDDLFEELEEQLLIADVGMDTTSKIIANLTARASRQQLRDGEALYGLLKEEMAEILSQVEQPLVIDTEKKPYVILMVGVNGVGKTTTIGKLAKQFQAQGKKVMLAAGDTFRAAAVEQLQVWGERNQVPVIAQHTGADSASVIYDAIEAAKARGIDVVIADTAGRLQNKSNLMEELRKIVRVMKKIDDSAPHEIMLTLDAGTGQNAISQAKLFSDVAPITGITLTKLDGTAKGGVIFAIADQFQIPIRYIGVGEKIDDLRPFATQEFIDALFSREE	not soluble
